Assay results reported in patent US20220185875A1 (JIANGSU HENGRUI MEDICINE, published 2022).

T1: biotin-hAng2-His (sinobiological, 10691-H07H) (human, UniProt O15123 19-496, biotin label, position not stated)
T1 construct: Bought reagent; also called Human ANG2-his; human ANG2
T1 sequence (looked up): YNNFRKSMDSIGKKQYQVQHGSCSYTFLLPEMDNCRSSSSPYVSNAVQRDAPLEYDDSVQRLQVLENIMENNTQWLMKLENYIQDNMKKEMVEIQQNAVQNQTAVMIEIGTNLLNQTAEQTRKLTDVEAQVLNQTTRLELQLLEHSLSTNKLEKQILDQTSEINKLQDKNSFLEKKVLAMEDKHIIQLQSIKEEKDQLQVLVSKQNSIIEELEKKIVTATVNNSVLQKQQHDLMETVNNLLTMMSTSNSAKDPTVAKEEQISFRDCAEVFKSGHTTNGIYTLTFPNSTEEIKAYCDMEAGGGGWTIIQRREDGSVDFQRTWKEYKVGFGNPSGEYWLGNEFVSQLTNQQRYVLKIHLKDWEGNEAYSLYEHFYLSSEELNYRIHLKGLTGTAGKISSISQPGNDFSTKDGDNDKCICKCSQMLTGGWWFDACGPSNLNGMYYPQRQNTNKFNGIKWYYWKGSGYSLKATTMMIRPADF

T2: human ANG1 (RD,923-AN) (human, UniProt Q15389 20-498, limits assumed)
T2 sequence (looked up): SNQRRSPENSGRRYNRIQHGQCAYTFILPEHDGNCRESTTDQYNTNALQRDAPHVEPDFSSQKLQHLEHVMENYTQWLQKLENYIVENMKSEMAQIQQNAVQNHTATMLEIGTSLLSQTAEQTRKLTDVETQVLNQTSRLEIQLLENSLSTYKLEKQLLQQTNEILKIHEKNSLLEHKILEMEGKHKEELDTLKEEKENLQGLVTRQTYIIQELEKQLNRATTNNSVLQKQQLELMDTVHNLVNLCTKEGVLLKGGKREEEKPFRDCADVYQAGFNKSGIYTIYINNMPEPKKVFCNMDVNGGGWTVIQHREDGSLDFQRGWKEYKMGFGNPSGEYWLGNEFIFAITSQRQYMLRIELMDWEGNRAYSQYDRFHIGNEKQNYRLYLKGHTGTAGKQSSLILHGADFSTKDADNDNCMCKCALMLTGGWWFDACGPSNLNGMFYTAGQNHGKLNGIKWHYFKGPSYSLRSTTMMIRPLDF


Key:
[1] = target: T1, biotin-hAng2-His (sinobiological, …); assay: ELISA, biotin-hAng2-His captured on streptavidin plate, OD450
Experimental: (§1) The plate was coated with streptavidin (abcam, ab123480) at a concentration of 1 ng/μl, 100 μl per well overnight at 4° C., and then the supernatant was removed. 250 μl 5% skimmed milk powder was added for blocking at 37° C. for 1 h, and the plate was washed with a washing machine for 3 times. 0.5 ng/μl biotin-hAng2-His (sinobiological, 10691-H07H) was added and incubated at 37° C. for 1 h. The plate was washed with a washing machine for 3 times, and 100 μl 1:1 diluted phage supernatant was added and incubated at 37° C. for 1 h. The plate was washed with a washing machine for 3 times, and 100 μl 1:10000 diluted anti-M13-HRP (GE, 27-9421-01) was added to each well and incubated at 37° C. for 1 h. The plate was washed with a washing machine for 3 times, and 100 μl TMB was added to each well for color development. After 5-10 min, 100 μl 1 M H₂SO₄ was added to each well to stop the color development, and the OD450 value was measured with a microplate reader.

[2] = target: T2, human ANG1 (RD,923-AN); assay: ELISA, plate coated with human ANG1, OD450
Experimental: as §1, with “human ANG1 (RD,923-AN)” for “streptavidin (abcam, ab123480)”, “C. The” for “C., and then the”, “removed and” for “removed.”, “blocking” for “blocking at 37° C. for 1 h, and the plate was washed with a washing machine for 3 times. 0.5 ng/μl biotin-hAng2-His (sinobiological, 10691-H07H) was added and incubated”, “M13-HRP” for “anti-M13-HRP (GE, 27-9421-01)”

[3] = target: T3, human ANG2 with human Fc tag (huANG2-Fc) (human, biotin label (Dojindo kit LK03, position not stated) in Test Examples 3 and 4; unlabelled in Test Example 5); assay: competition ELISA: Tie2-Fc coated, biotin-huANG2-Fc 0.15 ug/ml premixed with antibody; blocking of ANG2 binding to Tie2
T3 construct: It starts at YNNFRK, without a signal peptide; also called bio-huANG2-Fc; human Ang2-Fc
Experimental: Specific methods: the ELISA plate was coated with Tie2-Fc (SEQ ID NO: 2, 3 μg/ml dissolved in PBS, 100 μl/well) overnight at 4° C. and the coating solution was removed, 5% skimmed milk blocking solution diluted with PBS was added at 200 μl/well and incubated in a 37° C. incubator for 2 h for blocking. After the blocking was completed, the blocking solution was discarded and the plate was washed with PBST buffer (PBS containing 0.05% tween-20, pH 7.4) for 5 times. […] The solution was mixed well and then incubated at 37° C. for 15 min, added to the ELISA plate and incubated at 37° C. for 1 h. After the incubation was completed, the reaction solution in the ELISA plate was discarded and the plate was washed 5 times with PB ST. Then 1:4000 diluted streptavidin-peroxidase polymer (Sigma, 52438-250UG) was added at 100 μl/well and incubated at 37° C. for 1 h. After washing the plate 5 times with PBST, 100 μl/well TMB chromogenic substrate (KPL, 52-00-03) was added and incubated at room temperature for 3-10 min, and 1 M H₂SO₄ was added at 100 μl/well to stop the reaction.

Binder | EC50 (read off the curve) [1] | binding result [2] | IC50 [3]
Llama-derived single domain antibody nano14 (VHH) VHH: DVQLQESGGGLVQPGGSLRLSCAASGFTFDDFGMSWVRQAPGKGLEWVSSITWNGGSTYYADSVKGRFTISRDNAKNTVYLQMNSLKPEDTAIYYCNADHPQGYWGQGTQVTVSS | ~0.08 nM | no binding (tested: 100 nM) | 0.0393 nM
Llama-derived single domain antibody nano15 (VHH) VHH: DVQLQESGGGLVQPGGSLRLSCAASGFTFNSYAMSWVRQAPGKGLEWVSTINSGGGRTGYADSVKGRFTISRDNAKNTLYLQMNSLKPEDTAIYYCNADHPQGYWGQGTQVTVSS | ~0.06 nM | no binding (tested: 100 nM) | 0.0281 nM
